Where “and” joins values, the source holds several entries; their conditions need not be identical. Equal values may be shown once.
Target: the molecule itself
Experiment: cryo-EM structure; P22 procapsids (upper CsCl band) from infected S. typhimurium, in phage buffer (10 mM Tris-HCl, 1 mM MgCl2, pH 7.4); symmetry-mismatch reconstruction at about 9 Å and local reconstructions (portal 3.0 Å with C12, nodules 4.9 Å, SP trimer 6.9 Å, SP tetramer 6.9 Å, C-loop 6.7 Å); AlphaFold2 model of gp8 fitted into the maps

B1: bacteriophage P22 scaffolding protein gp8 (natural protein, UniProt P26748 1-303, looked up)
chain: MEPTTEIQATEDLTLSGDHAAASADSLVVDNANDNAGQEEGFEIVLKDDETAPKQDPAKNAEFARRRIERKRQRELEQQMEAVKRGELPESLRVNPDLPPQPDINAYLSEEGLAKYDYDNSRALAAFNAANTEWLMKAQDARSNAVAEQGRKTQEFTQQSAQYVEAARKHYDAAEKLNIPDYQEKEDAFMQLVPPAVGADIMRLFPEKSAALMYHLGANPEKARQLLAMDGQSALIELTRLSERLTLKPRGKQISSAPPADQPITGDVSAANKDAIRKQMDAAASKGDVETYRKLKAKLKGIR
notes: scaffolding protein gp8 of bacteriophage P22, 303 amino acid residues, 33.6 kDa; domains: N-loop 1-57, base 58-84 and 163-245, column 85-162, C-loop 246-267, hook 268-303; the N-loop was not resolved; Native protein within the procapsid; About 250-300 copies per procapsid, from cited work; also called SP; P22 SP; source: phage P22 propagated in S. typhimurium; inside procapsids purified by CsCl …
stoichiometry N: 2 and 3 and 4

Source: paper PMC12005531, “Structure of the scaffolding protein and portal within the bacteriophage P22 procapsid provides insights into the self-assembly process” (PLOS Biology, 2025)
